Values quoted from earlier work as cited in PMC6929323.

Biological target: UFD1L-NPLOC4 (Homo sapiens) (UniProt Q92890)
Assay: ITC

UniProt Q92890, sequence (Q92890 whole entry, chain 1 of 2): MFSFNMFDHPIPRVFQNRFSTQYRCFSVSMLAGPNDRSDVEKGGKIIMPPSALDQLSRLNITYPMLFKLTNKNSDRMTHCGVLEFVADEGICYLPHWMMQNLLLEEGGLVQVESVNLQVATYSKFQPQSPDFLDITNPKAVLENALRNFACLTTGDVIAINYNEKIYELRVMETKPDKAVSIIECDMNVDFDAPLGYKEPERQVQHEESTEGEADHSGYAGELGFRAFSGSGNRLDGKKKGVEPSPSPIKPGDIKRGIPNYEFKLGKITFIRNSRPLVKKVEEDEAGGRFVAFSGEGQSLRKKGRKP
UniProt Q92890, sequence (Q8TAT6 2-608, chain 2 of 2, further chain): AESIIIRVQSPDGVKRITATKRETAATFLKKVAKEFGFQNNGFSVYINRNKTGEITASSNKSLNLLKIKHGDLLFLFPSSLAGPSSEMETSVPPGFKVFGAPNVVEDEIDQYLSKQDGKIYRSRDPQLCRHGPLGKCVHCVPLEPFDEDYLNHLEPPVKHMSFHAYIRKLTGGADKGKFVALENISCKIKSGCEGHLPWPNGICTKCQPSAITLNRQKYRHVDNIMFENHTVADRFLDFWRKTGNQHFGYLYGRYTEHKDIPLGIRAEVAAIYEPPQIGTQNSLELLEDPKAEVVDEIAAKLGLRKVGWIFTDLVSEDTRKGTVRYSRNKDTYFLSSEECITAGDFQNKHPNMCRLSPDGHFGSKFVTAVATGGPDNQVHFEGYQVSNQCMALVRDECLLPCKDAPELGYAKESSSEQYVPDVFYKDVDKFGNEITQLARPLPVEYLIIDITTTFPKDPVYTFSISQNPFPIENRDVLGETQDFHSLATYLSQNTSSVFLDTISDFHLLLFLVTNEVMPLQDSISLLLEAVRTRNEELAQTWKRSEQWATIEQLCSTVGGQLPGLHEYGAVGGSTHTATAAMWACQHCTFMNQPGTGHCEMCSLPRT

Kd: 1.7 µM
Substance: p97 (from UniProt P55072)
